# Measured values reported in the DeepSol protein solubility set.
# Experiment: soluble on expression in E. coli; label from the status in PepcDB or PDB records
row,Sequence,soluble on expression in E. coli
1,MFSSAVRALCRTVPTVATRQLSTSRALLSLRPLGPKNTVPAFKGTAVVDGDFKVISDQDYKGKWLVMFFYPLDFTFVCPTEIIAYGDRANEFRSLGAEVVACSCDSHFSHLAWVNTPRKDGGLGDMDIPLLADFNKKIADSFGVLDKESGLSYRGLFLIDPSGTVRHTTCNDLPVGRSVDETLRVLKAFQFSDKHGEVCPADWHEDSPTIKPGVATSKEYFNKVNK,not soluble
2,MSLEVYFSGTIERIIFENPSNFYRILLLEIDDTDAEDFDDFEIIVTGTMADVIEGEDYTFWGQIVQHSKYGEQLQISRYDRAKPTSKGLVKYFSSSHFKGIGLKTAQKIVDTYGENTIDEILQHPEKLEGIAGLSAKNREAFVSTLRLNYGTEMILAKLANYGIPNKLAFQIQDFYKEETLDVVENYPYQLVEDIKGLGFTIADQLAEELGIESQAPERFRAGLVHSLFQACMETGDTYVEARDLLEQTLTLLESSRPVELDPSQVAQELSYLIEEDKVQQIDTKIFDNSLFFAEEGIRSHLVRILEKGKQKSHDLETIQKHITTVEQELGIEYDNIQKQAICDAIQNKVFILTGGPGTGKTTVINGIIAVYALLEGLDFRKKSNLPILLAAPTGRAARRMNELTGLPSATIHRHLGMTGDDDTSHLEDYLDADFIIVDEFSMVDTWLANQLFSNISSNSKILIVGDSDQLPSVSPGQVLADLLHIPLIPQTRLEKIYRQSKESTIVTLASQIRQGILPADFTQKKADRSYFEIASGHIPATIEKILGAALRNGIPARDIQVLAPMYRGTAGIDAINQLMQDLLNPPQKDQLSFEAPQCHYRKRDRVIHLVNDAEINVFNGDLGAITDLIPGKYTESKQDEIVIDFDGNEVSYPRNEWYKIRLAYAMSIHKSQGSEFPVVILPITSASRRMLERNLIYTAITRAKSKLILLGELQAFDYATQHIGTARKTYLIERFSDLLENVEEKQQAVSETVTSSASEQSYILTEENWDRIPAMIGITDTDLKEIFGKEGHHHHHH,soluble
3,AAEVGDDFLGDFVVGERVWVNGVKPGVVQYLGETQFAPGQWAGVVLDDPVGKNDGAVGGVRYFECPALQGIFTRPSKLTRQP,soluble
4,MAFPRTLAILAAAAALVVACSHGGTPTGSSTTSGASPATPVAVPVPRSCAEPAGIPALLSPRDKLAQLLVVGVRDAADAQAVVTNYHVGGILIGSDTDLTIFDGALAEIVAGGGPLPLAVSVDEEGGRVSRLRSLIGGTGPSARELAQTRTVQQVRDLARDRGRQMRKLGITIDFAPVVDVTDAPDDTVIGDRSFGSDPATVTAYAGAYAQGLRDAGVLPVLKHFPGHGRGSGDSHNGGVTTPPLDDLVGDDLVPYRTLVTQAPVGVMVGHLQVPGLTGSEPASLSKAAVNLLRTGTGYGAPPFDGPVFSDDLSGMAAISDRFGVSEAVLRTLQAGADIALWVTTKEVPAVLDRLEQALRAGELPMSAVDRSVVRVATMKGPNPGCGR,not soluble
5,SGDAASHEERMNNYRKRVGRLFMEQKAAQPDAVKLPSGLVFQRIARGSGKRAPAIDDKCEVHYTGRLRDGTVFDSSRERGKPTTFRPNEVIKGWTEALQLMREGDRWRLFIPYDLAYGVTGGGGMIPPYSPLEFDVELISIKDGGKGRTAEEVDEILRKAEEDREDM,soluble
6,MSRNPFDDDYRPSAASSTMPVKSYTTMGHYSGEDEADYYEREIEKTLQESLDSTERSRRHLENSEKIGTSTAQQLLEQREKLENTEKNLDEIHRTTQMTQRNLNSLKSFFGGMFKNKFTKKPQEPTETPTVPQSKSASRLSETATNLSSGGGSATFSGPSGQRTLTESSRSAIKGTRWEAMDNQIDENLDMMSANLRNLQRLGADLGKEVDSQNEMLDRIQYKAERNDGIVRDQDKQMQKILGTGASTSQTTAESLTPSMDTSTKMSLMMKATSLWK,not soluble
7,MRRDQKMTELNNQIRSLQEEHGKEKLLAAATKILGKKVPTDYVRVLDPLELQASLQQIDAAVQDVLEKGKAREEAYGEKASLIKQKVKLKTAVELKEAEAFMQIQGEGRNQFAYVNDQKVALTNDTLRDAYRLHYSKEERQQLTDVEQELASIDIKIYQTKDAWETAKESADLVKAKAYVQANLLKFLA,not soluble
8,MPLYRTYIEGEFLLGIWKSDETTEQLLASLEHKDWYREKLAVLSEKRKHEWLSVRVLLKALCGEEKEIAYYSSGRPYLKDGSRYISISHTRGYVAVALHSSCEVGMDIEQYGTRVRKVASRFIRSDEEPAMMEGDEVYALLLHWSAKEALFKLMGVEEVDFIRHLRIFPFSLSEEGEFEACEYRTGRQERYRVRYVTHPDFVLTWIIK,not soluble
9,MIYKSIAERLRIRLNSADFTLNSLLPGEKKLAEEFAVSRMTIRKAIDLLVAWGLVVRRHGSGTYLVRKDVLHQTASLTGLVEVLKRQGKTVTSQVLIFEIMPAPPAIASQLRIQINEQIYFSRRVRFVEGKPLMLEDSYMPVKLFRNLSLQHLEGSKFEYIEQECGILIGGNYESLTPVLADRLLARQMKVAEHTPLLRITSLSYSESGEFLNYSVMFRNASEYQVEYHLRRLHPEKS,soluble
10,MCMDSNVSWMIREKIERTIKNLEKNNIEAYNVKNSKQLIELIDKLIPEGETVAVGGSMTLFETGIIDHIRSKNYNFLDRYKEGLSKEDIKDVFRKSFFADSYIVSTNALTENGELYNVDGNGNRVAAMLFGPDKVIVIAGINKIVKDVDEAIKRNKFVSAPINAKRLNKATPTKVGYCMDCKSQDRICNEYTLIKRQGVKGRIKVIIVEEELGYLEHHHHHH,soluble
11,MSLIPIRCHAVSGVALSTVQGETRLLMMKRVKGGFWCHVAGTVEAGETGWQTIVREFREETGIVVHELYNGQYLEQFYEHATNTVCLVPVFVVYCPPTQAVTLNHEHTEYRWSTLAEAKALAGFPGQQALYDHLWHYFVENSPSALMRVAMTEGHHHHHH,not soluble
12,MRVVALVPGGIGDQILFFPTLDDLKRYYPNAQLDVVVEPRSKAAYRVSKSVNDILTFDYKDRNSLADWGNLVGTIRDREYDVVITVGQSWLVGLFLWLTGIPTRIGYQGKGRSFLTKTVPFKPSQYAAAVYHDLLAPIGITTPTPELAVNVPKPDIDWANSEQKRLGVNETGYVLIYGGSSWVSQPQALETIYPAENWQEIIQDFRQKQPDLPVVVIQGPDDEQFVRSLRDYSLDIKVTSPDNVGKLTAMIAGANLMLTTDSAPLHLSVAVQTYTIALFGSTDPVKLLPNSDKLLGIKSSTGRVADILPKAVLEKVWGGLEHHHHHH,not soluble
13,MSRLVIPSHSPNEEGNVVRVTPESAGWEYVGFEVYVLAKGQTLRKETKDQEACLVLLKGKANISTKLERWEQIGLRMDVSEKVPPYSVYIPSNDFYEVQAVTDLELAVCLAPGKGTYPARLIPPSEVGVEIRGAGNIERRVHNILPESQPADSLLVVEVFTPEGNWSSYPPHKHDQDNLPHESYLEETYYHKINPDHGFMVQRVYTDDRSIDETMVVKNGDVVLVPKGYHPVSAPPGYEGYYLNVMAGPVRTWKFHNDPDHEWVMESKLAAKQK,not soluble
14,MAHHHHHHMWSGLKLERLLYTFPETTTPTGWSQSDPLLSSPLGEADANEGDSSAVFGEDVNVEHRHFNNGERRRKLALRPFTVPASAMAEEGGEEGSHVHLGFSFPGEGKFDEEPEAVLWCPQGNCQWLNEESDCSQRSAMSCPARPTKTTIQLGDPGAPIKKNRERKYICNDADENSNSRVGPALYHQLEFFQESNSVSFPCESSALSHITPLDETGESVDLANHMSHLTVAVSPIQKRLLFTGVLDDAVDAPSGRDVGDDKGVGSGLQSLRREKRFLEEMDTNRDAANSNSMACTMPREPHRKFRRIDAGENDRKSLDNHFHSRR,not soluble
15,MNRCILLALLPLISAIPVAVNIDDQDAVNLGAYDRARFDLVESFHPLQPASAVTNDQIAEVRAKAAGVRQNEASISIDLPTQMLSGSSGRIPERLAFGEWTEWTSWSMCQNGERSRVRTCVSRKPALRVVCHGDAIEIEKCYVDAGEGHIPVAADPWSIEREISGDFA,not soluble
16,MEKKLLRKEVLITLKSQPQAYKSEVDCKLLEAFIKTKAYQNSCVIATYLSFDYEYNTQLLIKQALCDGKRVLVPKTYPKGKMIFVDYQKDNLRTTPFGLLEPVNDRAVEKASIDLIHVPGLIFNNKGFRIGYGAGYFDRYLSDFEGDTISTIYRCQRQDFVEEKHDVAVKEVLCLLEHHHHHH,soluble
17,MSLKGDDIEEGKELVATHIAEGLYHDGKFVGYVKRAHDVDVNLNAHTMFENLVVKASGVLSAIQMLRHSKIDPAEIDYVIECSEEACGDINQRGGGNFAKSIAEIAGLQNATGSDTRGFCAAPTHALIQAAALVKAGIHKNVMVVAGGASAKLGMNAKDHVKKGLPVLEDVVGGFAVLVSENDGVNPVIRTDLTGKHTVGTGSSPQAVMTALITSGLDRANLKITDVDVYSVEMQNPDITKPAGAGDVPEANYKMIGALAVKRGDLEKKELKDFVSNKGLPGWAPTQGHIPSGAPYIGFLIDDLTTGNRNRAMIVGKGSLFLGRMTNLFDGVSFIAERNTGVTEETSGISKDEIKKIIAESMKKLALDMLEEGHHHHHH,not soluble
18,MINEHYIPQAVILANGEYPAHELPLRLLAEAQFVVCCDGAANEYISRGHTPDVIIGDGDSLLPEYKKRFSSIILQISDQETNDQTKAVHYLQSKGIRKIAIVGATGKREDHTLGNISLLVEYMRSGMEVRTVTDYGTFIPVSDTQSFASYPGQQVSIINFGAKGLKAEGLFYPLSDFTNWWQGTLNEAIADEFTIHCTGEYLVFLAY,soluble
19,MGSDKIHHHHHHMKVTNYQGATIDPYSKGLGMVPGTSIQLTDAARLEWNLLNEDVSLPAAVLYADRVEHNLKWMQAFVAEYGVKLAPHGKTTMAPQLFRRQLETGAWGITLATAHQVRAAYHGGVSRVLMANQLVGRRNMMMVAELLSDPEFEFFCLVDSVEGVEQLGEFFKSVNKQLQVLLELGVPGGRTGVRDAAQRNAVLEAITRYPDTLKLAGVELYEGVLKEEHEVREFLQSAVAVTRELVEQERFARAPAVLSGAGSAWYDVVAEEFVKASETGKVEVVLRPGCYLTHDVGIYRKAQTDIFARNPVAKKMGEGLLPALQLWAYVQSIPEPDRAIIGLGKRDSAFDAGMPEPARHYRPGNEAPRDIAASEGWEIFGLMDQHAYLRIPAGADLKVGDMIAFDISHPCLTFDKWRQVLVVDPAYRVTEVIETFF,not soluble
20,MKKNMLRIMATVTIMGGLFVSTNVPNVKAEEYPEMIVFDDVPVNHWAYDDIMDVVYNKVMLGYGNGKFGVGDNVTREQVAAVLYRTLNLKKEGPLKNPYKDISERATFFLDEILVLTKHGIFEGDEKGNFRPAAPVTRAETAQILTKAFTFEVKKNHTFKDVPNNHWAKNAISALQSNHVIVGTGNGKFEPNKVVTREQYATFLNKAVFYFPVKDENYE,not soluble
21,MKPRDINKLIASKIFGYEIKDDNIIKDGRYRLGIPLYSQNIESAWQVVEKLEYDVKVTKTDLKPKYQVHVFVPGGVKMVFAETAPMAICKGALASVDIELQD,soluble
22,SNASKGMALRSVGGMVIESPRNETEHWLLETVGRQAQQAGIGMPTVAIYDSADINAFATGAKRDDSLVAVSTGLLHNMTRDEAEAVLAHEVSHIANGDMVTMTLMQG,soluble
23,MSVKSDSRHLYLRVIDHIKEKIKDGAYKERQKLPSEFDLAKELGVSRATLREALRILEEENVVIRRHGVGTFVNAKPLFSSGIEQLSSITDMISSVGKTPGTIFLSSSTTSLTEEEKEKFNSEDGFNAVMIERVRTADGEPVVYCIDKLAKEILPDLSGYNEESLLTVIHNNTHKRITYAVAHIEPIGYHPKISPILECEPETALLVLKQMHYDQNDEPILYSINYFRADKFSFHVLRKRM,not soluble
